According to US20040001822A1, “Y1-isolated molecules comprising epitopes containing sulfated moieties, antibodies to such epitopes, and uses thereof” (priority 2000, published 2004):

Experiments:
[1] = system: Jurkat cells; assay: FACS binding of IgG-Y1 compared with scFv-Y1; design: species or system human; conditions: 5 ng IgG-Y1 versus 1 μg scFv-Y1, Jurkat cells
Experimental: Binding of full size IgG-Y1 molecule: Binding experiments were performed to determine the level of binding of the IgG-Y1 molecule compared to the binding level of the scFv-Y1 molecule. A two-step staining procedure was employed, wherein 5 ng of IgG-Y1 were reacted with both RAJI cells (negative control, FIG. 44) and Jurkat cells (Y1 positive cells, FIG. 44). For detection, PE-labeled goat anti-human IgG was used. Similarly, 1 μg of scFv-Y1 was reacted with Jurkat cells (FIG. 44), and PE-labeled rabbit anti-scFv was used for detection.

[2] = system: glycocalicin, platelet lysate, KG-1 cell lysate, Raji cell lysate; assay: Western blot on glycocalicin, platelet, KG-1 and Raji lysates; assay type: binding, human; conditions: FIG. 20
Text: Antibodies against GPIbα (CD42b) recognize platelet lysate and glycocalicin and but not KG-1 cell lysate (a Y1 binding positive myeloid cell line) or Raji cell lysate (a B cell line that is negative for Y1 binding at concentrations at which KG-1 cells are positive for Y1 binding). […] (FIG. 20).

[3] = Western blot with Y1 on aryl-sulfatase-treated heparin-BSA; assay type: binding; conditions: 18 hr at 22° C.
Text: (§1) Y1 ligand was further characterized using enzymatic treatments with proteases, glycanases, and […]; Western blotting with Y1, anti-CD42 antibodies, anti-CD162 antibodies and 181, immunoprecipitation using Y1 and anti-CD162 antibodies; FACS analysis using Y1 anti-CD162 antibodies; and sequencing.
(§2) The table below summarizes the biochemical experiments preformed to characterize and localize the Y1 binding site on KG-1 cells.
(§3) Western Blot Analysis with Y1 on SDS-PAGE Reducing Gels
The nitrocellulose membrane was blocked using 5% skim milk for one hour at room temperature. The membrane was then washed 3 times for 5 minutes each with 0.05% Tween 20 in PBS at room temperature. The membrane was incubated with 5 μg/ml Y1-biotin (or 181-biotin) in 2% skim milk in PBS for one hour at room temperature. The membrane was then washed 3 times for 5 minutes each with cold 0.05% Tween 20 in PBS in the cold room (about 4 to about 10° C.). The membrane was then incubated in the cold room with a 1:1000 dilution of SAV-HRP (streptavidin-HRP) (at a final concentration of […]) in 2% skim milk, 0.05% Tween. The dilution was carried out at room temperature (about 25° C.), then the diluted SAV-HRP was cooled on ice for 10-15 minutes before use. The incubation was carried out for 1 hour with gentle shaking. After the incubation with SAV-HRP, the membrane was washed, as above. […]

[4] = system: washed platelets; assay: Ristocetin-induced agglutination of washed platelets after preincubation with scFv; assay type: cell-based, human
Experimental: Aggregation is determined in PRP due to the presence of thrombotic agents, while agglutination is determined in washed platelets. The effect of Y1 (scFv) on agglutination of washed platelets was tested at various concentrations of Y1. Platelets were pre-incubated with Y1 scFv, Y17 scFv, Y16-scFv, or a control TM-1 scFv for 4 min at 37° C. before being exposed to ristocetin, an inducer of platelet agglutination and aggregation.
Platelet concentrate in acid-citrate-dextrose (ACD) was obtained from a blood bank, platelets were isolated, washed once in buffer containing ACD and saline in a ratio of 1:7. The platelets were centrifuged at 800 g for 10 min after each wash and were resuspended in Tyrodes solution (2 mM MgCl2, 137 mM NaCl, 2.68 mM KCl, 3 mM NaH2PO4, 0.1% glucose, 5 mM Hepes and 0.35% albumin, pH 7.35) and count the number of cells.
For platelet aggregation studies, platelet rich plasma (PRP) and washed platelets were stirred at 500 rpm at 37° C. in whole blood Lumiaggregometer (Chronolog, Havertown,Pa.). The difference in light transmission through the platelet suspension and suspending medium was taken as 100% aggregation. The effect of Y1 on platelet aggregation was evaluated by addition of different concentration of Y1 before the addition of agonist, and the effect was recorded for four minutes.
The effect of Y17-scFv on vWF-dependent agglutination of platelets was tested at different concentrations of Y17.

[5] = system: RP-HPLC KG-1 membrane fraction; assay: Western blot with Y1 on enzyme-treated KG-1 membrane fraction; assay type: binding, human
Text: as §1, §2, §3
The nitrocellulose membrane was blocked using 5% skim milk for one hour at room temperature. The membrane was then washed 3 times for 5 minutes each with 0.05% Tween 20 in PBS at room temperature. The membrane was incubated with 5 μg/ml Y1-biotin (or 181-biotin) in 2% skim milk in PBS for one hour at room temperature. The membrane was then washed 3 times for 5 minutes each with cold 0.05% Tween 20 in PBS in the cold room (about 4 to about 10° C.). The membrane was then incubated in the cold room with a 1:1000 dilution of SAV-HRP (streptavidin-HRP) (at a final concentration of […]) in 2% skim milk, 0.05% Tween. The dilution was carried out at room temperature (about 25° C.), then the diluted SAV-HRP was cooled on ice for 10-15 minutes before use. The incubation was carried out for 1 hour with gentle shaking. After the incubation with SAV-HRP, the membrane was washed, as above. The membrane was then incubated with Super Signal mixture (Pierce) for 5 minutes as directed in the commercial protocol, then excess solution was dried. The membrane was use to expose it to X-ray film (Fuji), and the film was developed.

[6] = system: KG-1 cells; assay: Binding competition of Y1 forms on KG-1 cells; design: species or system human; conditions: Y1 IgG-Biotin 50 ng; Y1 scFvs 5 μg and 10 μg
Text: To compare the binding of the scFv monomer (also referred to as CONY1) with the Y1 dimer, binding competition experiments were done in vitro on KG-1 cells. In addition, these experiments also compared the binding of the full Y1 IgG to the scFv Y1 monomers. To perform this study, a Y1 IgG was labeled with biotin.

[7] = system: washed platelets; assay: Effect of Y1-IgG on agglutination of washed platelets with or without ristocetin; assay type: cell-based, human; conditions: IgG 1 μg/ml
Text: Due to its natural structure the full IgG Y1 has two binding sites on GPIbα and one binding site for an Fc receptor. It is likely that if full IgG Y1 binds two GPIbα molecules, it will activate platelets and induce platelet agglutination. Furthermore, because platelets have an Fc-receptor, Y1-IgG can induce platelet agglutination by binding to GPIbα and to an Fc-receptor, thereby producing platelet agglutination by each IgG Y1 binding to three platelets. Therefore, the effect of IgG Y1 on aggregation of washed platelets was tested at different concentrations of Y1-IgG in the presence or absence of ristocetin. Induction of platelet aggregation by Y1-IgG was monitored for 4 min at 37° C., followed by addition of ristocetin.
The results are presented in Table 6 and FIG. 17 without agonist. Y1-IgG alone at a final concentration of 50 μg/ml induced platelet agglutination ˜39% of normal agglutination of washed platelets. Induction of platelet agglutination by Y1-IgG was tested for 4 min at 37° C., followed by addition of ristocetin. […]
For platelet aggregation studies, platelet rich plasma (PRP) and washed platelets were stirred at 500 rpm at 37° C. in whole blood Lumiaggregometer (Chronolog, Havertown,Pa.). […] The effect of Y1 on platelet aggregation was evaluated by addition of different concentration of Y1 before the addition of agonist, and the effect was recorded for four minutes.

B1: Y1 scFv: fully human scFv clone binding platelets and myelogenous leukemia cells, SEQ ID NO: 25 (protein, listed as Homo sapiens)
scFv: MKYLLPTAAAGLLLLAAQPAMAEVQLVESGGGVVRPGGSLRLSCAASGFTFDDYGMSWVRQAPGKGLEWVSGINWNGGSTGYADSVKGRFTISRDNAKNSLYLQMNSLRAEDTAVYYCARMRAPVIWGQGTLVTVSRGGGGSGGGGSGGGGSSELTQDPAVSVALGQTVRITCQGDSLRSYYASWYQQKPGQAPVLVIYGKNNRPSGIPDRFSGSSSGNTASLTITGAQAEDEADYYCNSRDSSGNHVVFGGGTKLTVLGAAAEQKLISEEDLNGAA
more molecules needed for a level of detection similar to that of IgG-Y1 [1]: approximately 10^3 fold
recognition in Western blot [2]: recognized both glycocalicin, platelet lysate, and KG-1 cells, but not Raji cell extract
Reactivity with Y1 [3]: Binds to
% agglutination ([4]; scFv 4 μg/ml): 92%
% inhibition ([4]; scFv 4 μg/ml): 8%
% inhibition ([4]; scFv 4 μg/ml, listed as Y1): No inhibition
% agglutination ([4]; scFv 12.5 μg/ml): 67%
% inhibition ([4]; scFv 12.5 μg/ml): 33%
% inhibition ([4]; scFv 12.5 μg/ml, listed as Y1): only partial inhibition
% agglutination ([4]; scFv 25 μg/ml, ristocetin = 100% agglutination): 23%
Reactivity with Y1 ([5]; Mocarhagin, 7′ at 37° C.): No
Reactivity with Y1 ([5]; O-Sialo glycoprotein endopeptidase, 30′ at 37° C., SDS-PAGE reducing gel): Reactivity
Reactivity with Y1 ([5]; O-Sialo glycoprotein endopeptidase, 4 hr at 37° C.): No
Reactivity with Y1 ([5]; aryl-sulfatase, 18 hr at 22° C.): No
competition with Y1 IgG-Biotin [6]: partially competed
% agglutination Without ristocetin [7]: no induction
